Experimental data published in patent publication US20260374897 (published 2026).

Tests used:
human FAP ECD = human FAP ECD (human, UniProt Q12884); test: SPR
mouse FAP (cell surface) = target: T1, mouse FAP (cell surface) (mouse, UniProt P97321); test: FACS
T1 chain: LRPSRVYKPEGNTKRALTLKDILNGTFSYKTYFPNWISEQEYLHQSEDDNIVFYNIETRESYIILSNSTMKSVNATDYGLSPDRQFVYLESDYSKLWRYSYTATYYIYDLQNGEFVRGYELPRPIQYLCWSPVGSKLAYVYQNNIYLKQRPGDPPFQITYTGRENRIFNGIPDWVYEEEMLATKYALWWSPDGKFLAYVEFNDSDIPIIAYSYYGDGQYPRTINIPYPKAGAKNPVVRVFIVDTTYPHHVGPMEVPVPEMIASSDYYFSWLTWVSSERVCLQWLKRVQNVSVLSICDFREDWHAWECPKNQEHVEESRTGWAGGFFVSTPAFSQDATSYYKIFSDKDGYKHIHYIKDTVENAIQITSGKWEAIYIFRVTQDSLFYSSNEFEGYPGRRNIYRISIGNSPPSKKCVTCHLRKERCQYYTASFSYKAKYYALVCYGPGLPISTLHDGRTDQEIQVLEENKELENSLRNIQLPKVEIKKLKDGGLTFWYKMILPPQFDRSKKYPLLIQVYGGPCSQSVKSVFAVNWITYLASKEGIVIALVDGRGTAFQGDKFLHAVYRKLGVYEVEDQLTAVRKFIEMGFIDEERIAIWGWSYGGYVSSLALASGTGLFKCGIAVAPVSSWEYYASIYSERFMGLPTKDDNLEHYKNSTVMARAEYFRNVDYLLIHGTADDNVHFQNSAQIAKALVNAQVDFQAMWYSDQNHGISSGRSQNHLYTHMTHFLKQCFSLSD

human FAP (cell surface) = human FAP (cell surface) (human, UniProt Q12884); test: FACS
human FAP (cell surface), sequence (Q12884 26-760): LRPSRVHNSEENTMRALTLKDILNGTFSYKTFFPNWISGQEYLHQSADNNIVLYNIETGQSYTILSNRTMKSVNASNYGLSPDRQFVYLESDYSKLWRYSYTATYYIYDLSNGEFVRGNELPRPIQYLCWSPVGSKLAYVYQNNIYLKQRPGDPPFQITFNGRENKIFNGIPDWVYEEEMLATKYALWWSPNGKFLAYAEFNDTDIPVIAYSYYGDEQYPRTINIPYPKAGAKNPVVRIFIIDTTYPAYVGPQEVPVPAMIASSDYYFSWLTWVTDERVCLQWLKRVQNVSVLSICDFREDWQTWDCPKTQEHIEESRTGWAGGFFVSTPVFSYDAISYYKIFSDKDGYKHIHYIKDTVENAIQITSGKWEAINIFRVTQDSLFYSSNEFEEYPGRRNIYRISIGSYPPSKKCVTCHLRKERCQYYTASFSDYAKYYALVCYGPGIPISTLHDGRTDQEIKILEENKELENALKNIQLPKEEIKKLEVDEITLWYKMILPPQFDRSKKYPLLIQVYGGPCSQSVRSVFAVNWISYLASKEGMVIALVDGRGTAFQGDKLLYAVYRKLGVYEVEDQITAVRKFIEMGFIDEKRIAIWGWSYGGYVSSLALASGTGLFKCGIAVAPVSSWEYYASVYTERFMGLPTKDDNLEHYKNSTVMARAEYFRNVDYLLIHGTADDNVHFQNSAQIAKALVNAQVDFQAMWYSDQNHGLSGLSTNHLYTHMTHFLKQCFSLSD

human FAP ECD, sequence (Q12884 26-760): as above

Row | Binder | Kd (human FAP ECD) | EC50 (mouse FAP (cell surface)) | EC50 (human FAP (cell surface))
1 | Ab10-A297V3-2 FAP arm (antibody, V domains shown) VH: QVQLQQSGVEVKKPGASVTVSCRASGYSFADHFIHWVRQAPGQGFQWMGWINPNRGVTHHAQDFQGRVAMTRDMSTDTVYMELTSLRSDDTAVYYCARDASLTARPYYFYGFDVWGQGTLVTVSS VL: DIQMTQSPSSVSASVGDRVTITCRASQGISSWLAWYQQKPGKAPKLLIYAASSLQSGVPSRFSGSGSGTDFTLTISSLQPEDFATYYCQQANSFPPAFGQGTKVEIK | 0.405 nM | 0.79 nM | 2.51 nM
2 | Ab10-A297V3-4 FAP arm (antibody, V domains shown) VH: QVQLQQSGVEVKKPGASVTVSCRASGYSFADHFIHWVRQAPGQGFQWMGWINPNRGVTHHAQDFQGRVAMTRDMSTDTVYMELTSLRSDDTAVYYCARDASLTARPYYFYGFDVWGQGTLVTVSS VL: DIQMTQSPSSVSASVGDRVTITCRASQGISSWLAWYQQKPGKAPKLLIYAASSLQSGVPSRFSGSGSGTDFTLTISSLQPEDFATYYCQQANSFPPAFGQGTKVEIK | 0.378 nM | 1.65 nM | 1.57 nM
